In publication PMC6344894 one finds Kd and binding signal data, which are given here for four substances.

Read-outs that look alike come from different tables or passages of the source.

For orientation: Kd means the equilibrium constant for the complex coming apart.

For data set [1], the target named is YbaK (Escherichia coli) (UniProt P0AAR3). As to conditions: cited from earlier work.
Data set [2] has the same target. Particulars: cited from earlier work. This is another data set of the same source.
The test system of data set [3] is ProXp-ala (Caulobacter crescentus). Nature of the data set: native MS competition. Particulars: equimolar three-tRNA mix, 0.33 uM each; 5 uM protein; 1 mM Mg(OAc)2; unmodified transcript; AUC: 50 mM HEPES pH 6.8, 30 mM KCl, 1 mM MgCl2, 20 C; native MS: 200 mM ammonium acetate pH 7.5 (1 mM Mg(OAc)2 stated for ProXp-ala/YbaK competition); scale: ratio of complex tRNAPro:tRNACys:tRNAAla.

In the case of ProRS (from UniProt P16659), the Kd in data set [1] was 550 nM; in data set [2], 45 nM.
Take tRNAAla G35A: in data set [3], the binding signal worked out at 1.
In the case of tRNACys, the binding signal in data set [3] is 1.
Same read-out and setting: in the case of tRNAPro it was 4.
